According to paper PMC5807053, “Saposin Lipid Nanoparticles: A Highly Versatile and Modular Tool for Membrane Protein Research” (Structure(London, England:1993), 2018):
Where two headings read alike, the source gives them in different places. One block for each molecule: values may come before it. Residues, ends and D or L forms follow the SMILES beside them.

What was measured:
[1] = biological target: T1, SapA/POPS empty nanoparticles (Homo sapiens, UniProt P07602); assay: MST control for unspecific peptide binding to empty SapA/POPS nanoparticles
T1 construct: saposin A (residues 60 to 140); made in house; host or cells: E. coli Rosetta gami-2 (DE3)
T1 sequence (P07602 60-140): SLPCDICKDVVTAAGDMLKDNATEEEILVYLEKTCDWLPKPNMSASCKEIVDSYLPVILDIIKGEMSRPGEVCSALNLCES
Excerpt: (§1) The samples were loaded in standard glass capillaries. […] Empty SapNPs were used as control measurements.

PepTSt = conditions: MST, 20 °C
Method: PepTSt and PepTSo2 di and tripeptide binding in solution was measured by MST with the Monolith NT.LabelFree (NanoTemper technologies). The proteins were kept at a constant concentration of ∼125 nM and were combined with a series of 16 different peptide concentrations. For DDM- and SapNP-solubilized proteins, the ligands were diluted in DDM buffer (20 mM Tris pH 7.5, 150 mM NaCl, 5 % glycerol, and 0.03 % DDM) and in 1 × PBS, respectively. The thermophoretic movement of the proteins, alone and in complex with different peptides, was monitored and quantified using time-dependent intrinsic tryptophan fluorescence. The samples were loaded in standard glass capillaries. Data were acquired at 20 °C, the LED power was set to 20 %, and the MST power to 20 % and 40 %. The dissociation constant (KD) values were derived from the nonlinear fitting of the normalized fluorescence signal at different ligand concentrations using the NT analysis software. Empty SapNPs were used as control measurements.

[2] = biological target: peptide transporter PepTSt from Streptococcus thermophilus (Streptococcus thermophilus) (UniProt Q5M4H8); assay: MST; label-free, transporter reconstituted in SapA/POPS nanoparticles at ~125 nM, 16 peptide concentrations, 1x PBS, 20 °C
[3] = biological target: peptide transporter PepTSt from Streptococcus thermophilus (Streptococcus thermophilus) (UniProt Q5M4H8); assay: MST; label-free, transporter reconstituted in SapA/BL (brain total lipid extract) nanoparticles at ~125 nM, 16 peptide concentrations, 1x PBS, 20 °C
[4] = biological target: peptide transporter PepTSt from Streptococcus thermophilus (Streptococcus thermophilus) (UniProt Q5M4H8); assay: MST; label-free (intrinsic tryptophan fluorescence), DDM-solubilised transporter at ~125 nM, 16 peptide concentrations, 20 mM Tris pH 7.5, 150 mM NaCl, 5 % glycerol, 0.03 % DDM, 20 °C
[5] = biological target: small-conductance mechanosensitive channel T2 from Thermoplasma volcanium (Thermoplasma volcanium); assay: SEC-MALS; triple-detection SEC conjugate analysis (UV, refractive index, multi-angle light scattering); 60 uL T2 at 5 mg/mL on SD200 10/300 in 20 mM Tris pH 7.5, 150 mM NaCl, 5 % glycerol, 0.03 % DDM
PepTSo2 = biological target: T2, PepTSo2 (Shewanella oneidensis, UniProt Q8EHE6); assay: MST di-/tripeptide binding in solution to PepTSo2; conditions: 20 °C
T2 sequence (Q8EHE6 1-516): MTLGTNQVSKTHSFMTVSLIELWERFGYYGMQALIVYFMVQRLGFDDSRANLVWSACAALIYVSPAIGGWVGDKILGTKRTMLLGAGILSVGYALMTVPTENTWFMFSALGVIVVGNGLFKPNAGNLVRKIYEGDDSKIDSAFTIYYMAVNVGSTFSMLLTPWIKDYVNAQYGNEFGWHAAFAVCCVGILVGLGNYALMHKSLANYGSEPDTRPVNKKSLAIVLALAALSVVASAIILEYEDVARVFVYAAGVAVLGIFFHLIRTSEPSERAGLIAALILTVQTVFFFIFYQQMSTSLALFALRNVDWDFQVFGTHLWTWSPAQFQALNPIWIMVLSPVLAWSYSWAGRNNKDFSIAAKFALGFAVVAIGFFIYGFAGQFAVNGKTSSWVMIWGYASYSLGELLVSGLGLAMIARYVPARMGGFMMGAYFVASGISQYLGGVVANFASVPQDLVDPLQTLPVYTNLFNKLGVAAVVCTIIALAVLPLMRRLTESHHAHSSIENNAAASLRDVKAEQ
Excerpt: as §1

[6] = Protein thermal unfolding by dye-free nanoDSF; format: physicochemical; conditions: purified protein alone, 20 to 95 °C
Method: The stability of the different DDM-solubilized or SapNP-reconstituted proteins was followed using a nanoDSF (Prometheus NT.48 form NanoTemper Technologies, GmbH). The dye-free proteins were excited at 280 nm and their intrinsic fluorescence at 350 and 330 nm were measured as a function of temperature to monitor the fluorescence changes upon heat unfolding. 10 μL of protein solution at a concentration of 0.5 mg/mL were loaded in a glass capillary, and the unfolding was measured in duplicates at a heating rate of 1 °C/min between 20 and 95 °C. The first derivative of the unfolding curves (350/330 nm ratio) was used to determine the transition midpoint (Tm).

[7] = parameters: method as in Frauenfeld et al., 2016; conditions: ref Frauenfeld et al., 2016, cited from earlier work

Molecule: CC(C)C[C@H](N)C(=O)N[C@@H](C)C(=O)O [Leu-Ala] (H-Leu-Ala-OH; N-terminus and C-terminus assumed)
unspecific peptide binding [1]: no unspecific peptide binding
Kd (PepTSt; PepTSt in DDM): 16.6 ± 3.6 mM
Kd (PepTSt; PepTSt in SapA/BL): 16.4 ± 3.6 mM
Kd (PepTSt; PepTSt in SapA/POPS): 5.49 ± 1 mM

Molecule: C[C@H](N)C(=O)N[C@@H](Cc1ccccc1)C(=O)N[C@@H](C)C(=O)O [Ala-Phe-Ala] (H-Ala-Phe-Ala-OH; N-terminus and C-terminus assumed)
Kd (PepTSo2; PepTSo2 in DDM): 3.4 ± 1.3 mM
Kd (PepTSo2; PepTSo2 reconstituted in SapA/BL): 5 ± 3 mM

B1: saposin A: human saposin A, Prosaposin residues 60 to 140, recombinant (protein)
chain: SLPCDICKDVVTAAGDMLKDNATEEEILVYLEKTCDWLPKPNMSASCKEIVDSYLPVILDIIKGEMSRPGEVCSALNLCES
modifications: left off: His6, N-terminal, cleaved
notes: human saposin A, Prosaposin residues 60 to 140, recombinant
unfolding transition [6]: does not show an unfolding transition

B2: PepTSo2: peptide transporter from Shewanella oneidensis (protein)
chain: MTLGTNQVSKTHSFMTVSLIELWERFGYYGMQALIVYFMVQRLGFDDSRANLVWSACAALIYVSPAIGGWVGDKILGTKRTMLLGAGILSVGYALMTVPTENTWFMFSALGVIVVGNGLFKPNAGNLVRKIYEGDDSKIDSAFTIYYMAVNVGSTFSMLLTPWIKDYVNAQYGNEFGWHAAFAVCCVGILVGLGNYALMHKSLANYGSEPDTRPVNKKSLAIVLALAALSVVASAIILEYEDVARVFVYAAGVAVLGIFFHLIRTSEPSERAGLIAALILTVQTVFFFIFYQQMSTSLALFALRNVDWDFQVFGTHLWTWSPAQFQALNPIWIMVLSPVLAWSYSWAGRNNKDFSIAAKFALGFAVVAIGFFIYGFAGQFAVNGKTSSWVMIWGYASYSLGELLVSGLGLAMIARYVPARMGGFMMGAYFVASGISQYLGGVVANFASVPQDLVDPLQTLPVYTNLFNKLGVAAVVCTIIALAVLPLMRRLTESHHAHSSIENNAAASLRDVKAEQ
Tm ([7]; encapsulated in SapA/BL nanoparticles): 72 °C
Tm ([7]; in the detergent nonyl-β-D-maltopyranoside): 43 °C

Further lines, results first:

Kd [2]: 5.49 mM
Kd [3]: 16.4 mM
Kd [4]: 16.6 mM
Molecule: dipeptide Leu-Ala

stoichiometry N [5]: 7
Molecule: small-conductance mechanosensitive channel T2 from Thermoplasma volcanium (natural protein)
